# Target: Tpp49Aa1 pesticidal protein from Lysinibacillus sphaericus (Lysinibacillus sphaericus)
# Experiment: crystal structure
substance,measurement,value
Tpp49Aa1 pesticidal protein from Lysinibacillus sphaericus (natural protein),stoichiometry N,2

# From paper doi:10.1101/2022.01.14.476343
